Test results reported in the supplement of paper PMC7125110.
± gives the standard error. Variants at the floor of the assay were thinned out.

B1: glmS ribozyme (parent)
chain: AUAAAAGCGCCAGAACUACAGAAAUGUAGUUGACGAGGAGGAGGUUUAUCGAAUUUUCGGCGGAUGCCUCCAAA

Variants of: B1
Experiment: self-cleavage kobs at 10000 uM GlcN6P; higher = faster cleavage; RNA array
Settings: with glucosamine-6-phosphate
How it was run: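 Glucosamine-6-phosphate, from 40 μM to 10 mM in HEPES/KCl/Mg(OAc)2 buffer, was flowed over sequenced MiSeq chips carrying barcoded ribozyme variants transcribed in situ by E. coli RNA polymerase. A hybridised Cy3 probe tracked the variants at 37 °C as tiles were imaged over ~14 h. kobs, kcat and KM were obtained by fitting normalised per-tile medians to exponential decays and then applying weighted Michaelis–Menten fits across concentrations.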

Row | Variant | self-cleavage kobs at 10000 uM GlcN6P [s⁻¹]
1 | AUAAAAGCGCCAGAUCUACAGAAAUGUAGUUGACGAGGAGGAGGUUUAUAAAGUUUUCGGCGGAUGCCUCCAAA | < 1e-05
2 | AUAAAAGCGCCAGACGUACAGAAAUGUAGUUGACGAGGAGGAGGUUUAUCGAAUUAUCGGGGGAUGCCUCCAAA | < 1e-05
3 | AUAAAAGCGCCAGAAGUACAGAAAUGUAUUUGACGAGGAGGAGGUUUAUCGAAUUUUAGGCGGAUGCCUCCAAA | 0.000585 ± 0.00014
4 | AUAAAAGCGCCAGAACUACAUAAAUGUAGUUGUCGAGGAGGAGGUUUAUCGAAUUUUCGGCGGAUGCCUUCAAA | 0.000159 ± 2.9e-05
5 | AUAAAAGCGCCAGAUCUACAGAAAUGUAGUUGACGAGGAGGAGGUUUAUCGAAUUUUCUGCGGAUGCCUCGAAA | < 1e-05
6 | AUAAAAGCGCCAGAAGUACAGAAAUGUAGUUGACGAGGAGGAGGUUAAUCGAAUUUUCGGGGGAUGCCUCCAAA | < 1e-05
7 | AUAAAAGCGCCAGAAAUACAGAAAUGUAGUUGACGAGAAGGAGGUUUCUCGAAUUUUCGGCGGAUGCCUCCAAA | < 1e-05
8 | AUAAAAGCGCCAGAGUUACAGAAAUGUAGUUGACGAGGUGGAGGUUUAUCGAAUUUUCGGCGGAUGCCUCCAAA | 0.00651 ± 0.0013
9 | AUAAAAGCGCCAGAAUUACAGAAAUGUAGUUGACGAGGAGGAGAUUUAUCGAAGUUUCGGCGGAUGCCUCCAAA | 0.000358 ± 7.9e-05
10 | AUAAAAGCGCCAGAUCUACAGAAAUGUAGUUGACGAGGAGGAGUUUUAUCGAAUUUUCGGCGGAUGCCUCCAAA | 3.08e-05 ± 1.4e-05
11 | AUAAAAGCGCCAGUACUAUAGAAAUGUAGUUGACGAGGAGGAGGUUUAUCGAAUUUUGGGCGGAUGCCUCCAAA | 9.16e-05 ± 2.1e-05
12 | AUAAAAGCGCCAGUACUACAGAAAUGUAGGUGACGAGGAGGAGGUUUAUCGAAUGUUCGGCGGAUGCCUACAAA | 3.35e-05 ± 1.5e-05
13 | AUAAAAGCGCCAGAUCUACAGAAAUGUAGUUUACGAGGAGGAGGUUUAUCGAAAUUUCGGCGGAUGCCUCCAAA | 0.00058 ± 0.00013
14 | AUAAAAGCGCCAGUACUACAGAAAUGUAGUUGACGAGGAGGAGGUUUAUCGAAUUUUCGGCGGCUGCCUCCAAA | 2.75e-05 ± 1.3e-05
15 | AUAAAAGCGCCAGAAGUACAGAAAUGUAGUUCACGAGGAGGAGGUUUAUCGAAUUUUCGGCGGAUGCCUUCACA | 0.000111 ± 1.7e-05
16 | AUAAAAGCGCCAGACCUACAGAAAUGUAGUUGACGAGGAGGAGGUUUAUCGAUUUUUCGGCGGAUGCCUCGAAA | 0.000151 ± 3.6e-05
17 | AUAAAAGCGCCAGAAAUACAGAAAUGUAGUUGACCAGGAGGAGGUUUAUCGAAUUUUCGGCGGAGGCCUCCAAA | < 1e-05
18 | AUAAAAGCGCCAGUACUACAGAAAUGUAGUUGACGACGAGGAGGUUUAUCGAAUUUUCCGCGGAUGUCUCCAAA | < 1e-05
19 | AUAAAAGCGCCAGAUCUACAGAAAUGUACUUGACGAGGAGGAGGUUGAUCGAAAUUUCGGCGGAUGCCUCCAAA | 0.000122 ± 2.4e-05

Row | Variant | self-cleavage kobs at 10000 uM GlcN6P [s⁻¹]
20 | AUAAAAGCGCCAGAAUUACAGAAAUGUAGUUGACGAGGAGGAGGCUUAUCGAAUGUUCGGCGGAUGCCUCCAAA | 0.00144 ± 0.0003
21 | AUAAAAGCGCCAGAACUACAGAAAUUUAGUUGACGAGGAGGAGGUUUAGCGAAUUAUCGGCGGAUGCCUCCAAA | 0.00027 ± 6.8e-05
22 | AUAAAAGCGCCAGAUCUACAGAAAUGUAGUUGACGAGGAGUAGGUUUUUCGAAUCUUCGGCGGAUGCCUCCAAA | < 1e-05
23 | AUAAAAGCGCCAGAACUACAGAAAUGUAAUUGAGGAGGAGGAGGUUUAUCGAAUUUUCGGCGGAUGUCUCCAAA | < 1e-05
24 | AUAAAAGCGCCAGUACUACAGAAAUGUAGUUGACCAGGAGAAGGUAUAUCGAAUUUUCGGCGGAUGCCUCCAAA | < 1e-05
25 | AUAAAAGCGCCAGAUCUACAGAAAUGUAGUUGACGAGGGGGAGGUUUAUCGAAUUUUCGGCAGAUGCCUCCAAA | < 1e-05
26 | AUAAAAGCGCCAGAAGUACAGAAAUGUAGUUGACGACGAGGAGGUUUAUCGAAUUUUCGGCAGAUGCCUCCAAA | < 1e-05
27 | AUAAAAGCGCCAGAUCUACAGAAAUGUAGUUGACGAGGAGGAGGUUUAUCGAUUUUUCGGCGCAUGCCUCCAAA | < 1e-05
28 | AUAAAAGCGCCAGAUCUACAUAAAUGUAGUUGACGAGGAGGAGGUUUAUCGAAUUUUCGGCGGAUGCCUCCAAA | 0.00395 ± 0.00079
29 | AUAAAAGCGCCAGAAUUACAGAAAUGUAUUUCACGAGGAGGAGGUUUAUCGAAUUUUCGGCGGAUGCCUCCAAA | 8.38e-05 ± 1.7e-05
30 | AUAAAAGCGCCAGAAUUACAGAAAUGUAGUUGACGAGAAGGAGGUUUAUCGGAUUUUCGGCGGAUGCCUCGAAA | < 1e-05
31 | AUAAAAGCGCCAGUACUACAGAAAUGUAGUUGACGAGGAGGAGGUUUAUCGAUUUGUUGGCGGAUGCCUCCAAA | 3.75e-05 ± 8.7e-06
32 | AUAAAAGCGCCAGAGUUACAGAAAUGUAGUUGACGAGGAGGAGGUUUAUCUAAUUUUCGGCGGAUGCCUCCAAA | < 1e-05
33 | AUAAAAGCGCCAGUACUACAGAAAUGUAGUUGACGAGGAGGAUGUUUAUCAAAUUUUCGGCGGAUGCCUCCAAA | < 1e-05
34 | AUAAAAGCGCCAGAGCUACAGAAAUGUAGUUGCCGAGGAGGAGGUGUAUCGAAUUUUCGGCGGAUGCCUCCAAA | 4.59e-05 ± 1.3e-05
35 | AUAAAAGCGCCAGAAAUACAGAAAUGUAGUUGACGAGGAGGAGGUUUAUCUAAUUUUCGGCGGAAGCCUCCAAA | < 1e-05
36 | AUAAAAGCGCCAGAACUACAUAAAUGUACUUGACGAGGAGGAGGUUUAUCGAAUUUUCGGCGGAUGCCUCCAAA | 0.00256 ± 0.0005
37 | AUAAAAGCGCCAGAAUUACAGAAAUGUAGUUGACGAGGACGAGGUUUAUCGACUUUUCGGCGGAUGCCUCUAAA | 0.000561 ± 0.00013
